Earlier results as cited in paper PMC4276913.

Target: Ubc13 (Homo sapiens) (UniProt P61088)
UniProt P61088, sequence (P61088 whole entry): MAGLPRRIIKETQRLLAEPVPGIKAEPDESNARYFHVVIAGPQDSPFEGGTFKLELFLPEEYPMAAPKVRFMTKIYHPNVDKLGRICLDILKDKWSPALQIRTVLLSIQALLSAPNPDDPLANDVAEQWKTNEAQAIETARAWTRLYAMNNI

Kd: 49 nM
Substance: Mms2 (from UniProt Q15819)
